Results on five molecules are retold here after patent publication US20260109763A1 (DENALI THERAPEUTICS, published 2026).

B1: Anti-PILRA antibody clone 2 (antibody, human IgG1, kappa, L234A L235A, V domains shown)
VH: EVQLVESGGGLVQPGRSLRLSCAVSGFTFDDYAMHWVRQAPGKGLEWVSGFSWNSGSIGYPDSVKGRFTISRDNAKNSLYLQMNSLRAEDTAFYYCAKDKSISAAGRFDYWGQGTLVTVSS
VL: DIQMTQSPSSLSASVGDRVTITCQASRRINNYLNWYQQKPGKAPKLLIYDASNLETGVPSRFTGSGSGTDFTLTISSLQPEDIATYYCQQYDNLPLTFGGGTKVEIKR
notes: also called Ab; Clone 2; Ab.2
B2: human PILRA G78 extracellular domain (recombinant hPILRA ECD) (receptor)
chain: QPSGSTGSGPSYLYGVTQPKHLSASMGGSVEIPFSFYYPWELATAPDVRISWRRGHFHGQSFYSTRPPSIHKDYVNRLFLNWTEGQKSGFLRISNLQKQDQSVYFCRVELDTRSSGRQQWQSIEGTKLSITQAVTTTTQRPSSMTTTWRLSSTTTTTGLRVTQGKRRSDSWHISLETA
notes: also called hPILRA G78
B3: Anti-PILRA antibody clone 35 (antibody, V domains shown)
VH: EVQLVQSGAEVKKPGASVKVSCKASGYTFTEYYMYWVRQAPGQGLELIGRIDPEDGGTDYVEKFKNRATLTADTSTSTAYLELSSLRSEDTAVYFCASTIRGTVFVYWGQGTLVTVSS
VL: DIQMTQSPSSLSASVGDRVTITCRPSEDIYNGLAWYQQKPGKSPKLLIYNANSLHTGVPSRFSGSGSGTDYTLTISSLQPEDFATYFCQQYYDYPLTFGQGTKVEIK
notes: Humanized; also called Ab.35
B4: PILRB binding positive control antibody (antibody, human IgG1, kappa, L234A L235A, V domains shown)
VH: QVQLQESGPGLVKPSGTLSLTCAVSGGSISSNHWWSWVRQPPGKGLEWIGEIYHYGTTDYNPSLQSRVTISVDKSKNQFSLKLTSVTAADTAVYFCARGLRDYYYYMDVWGKGTTVTVSS
VL: DIQMTQSPSSLSASVGDRVTITCRASQTISSYLNWYQQKPGKAPKLLIYAASSLQSGVPSRFSGSGFGTDFTLTISSLQPEDFATYYCQQSYSIPLTFGGGTKVEIKR
B5: Anti-PILRA antibody clone 7 (antibody, V domains shown)
VH: EVQLQQSGPELQRPGASVKLSCKASGYTFTEYYMYWVKQRPKQGLELMGRIDPEDGGTDYVEKFKNKATLTADTSSNTAYMQLSSLTSEDTATYFCASTIRGTVFVYWGQGTLVTVSS
VL: DIQMTQSPASLSASLGETVTIECRPSEDIYNGLAWYQQKPGESPQLLIYNANSLHTGVPSRFSGSGSGTQYSLKINSLQSEDVASYFCQQYYDYPLTFGSGTKLEIK

Assay [1] deals with T1, human PILRA G78 on cells (human, UniProt Q9UKJ1 20-303). As to the kind of experiment: cell-based or functional assay.
Target sequence in this assay (Q9UKJ1 20-303 R78G limits assumed): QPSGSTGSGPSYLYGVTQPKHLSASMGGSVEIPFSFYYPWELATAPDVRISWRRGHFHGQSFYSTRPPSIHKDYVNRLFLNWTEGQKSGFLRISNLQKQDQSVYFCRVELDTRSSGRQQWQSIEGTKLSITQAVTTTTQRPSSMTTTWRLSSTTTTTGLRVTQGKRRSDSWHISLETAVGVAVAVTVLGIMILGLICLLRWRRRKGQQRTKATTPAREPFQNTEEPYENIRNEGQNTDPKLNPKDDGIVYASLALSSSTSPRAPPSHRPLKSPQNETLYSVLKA
Assay [2] deals with B2. As to the kind of experiment: SPR, Biacore 8K; antibody captured via anti-human Fab, recombinant ECD injected; 1:1 fit.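 Also: CM5 sensor chip, ECD analyte in threefold dilution series at 30 µL/min, 3 min association and 10 min dissociation, kon and koff fitted simultaneously.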
Experimental: (§1) Antibodies were captured on Biacore™ Series S CM5 sensor chips immobilized with mouse anti-human Fab (human Fab capture kit from GE Healthcare) followed by injections of serial 3-fold dilutions of recombinant ECD reagents at a flow rate of 30 μL/min. Each sample was analyzed using a 3-minute association followed by a 10-minute dissociation. After each injection, the sensor chip was regenerated using a 5 0 mM glycine pH2.0 regeneration buffer. A 1:1 Languir model of simultaneous fitting of kₒₙ and koff was used for kinetics analysis.
The target in assay [3] is T2, human PILRA R78 extracellular domain (recombinant) (human, UniProt Q9UKJ1 20-197).
T2 construct: also called hPILRA R78
Described as above.
Experimental: as §1

For assay [4], the target named is T3, cynomolgus monkey PILRA extracellular domain (recombinant) (cynomolgus monkey).
T3 construct: also called cynoPILRA; Cyno PILRA
The assay is described as above.
Experimental: as §1

Assay [5] has as its target T4, human PILRA R78 on cells (human, UniProt Q9UKJ1 20-303).
T4 construct: also called hPILRA R78; PILRA 78R
Put plainly: flow cytometry on PILRA R78 expressing HEK293 cells (FIG. 1F); flow cytometry titration on HEK293 cells overexpressing PILRA R78.
Experimental: (§2) PILRA G78 or R78 overexpressing HEK293 cells were stained with NucBlue Live cell stain for 30 mins at RT. […] Cell lines were run in duplicate to account for intra-variability, for a total of N=3. The same protocol was used for CHO-K1 cells expressing hPILRA G78.

The target in assay [6] is T1, human PILRA G78 on cells. As to the kind of experiment: flow cytometry on HEK293 cells expressing hPILRA G78.
Target sequence in this assay (Q9UKJ1 20-303 R78G limits assumed): as above
Experimental: Parental HEK293 cells were labeled with NucBlue Live ReadyProbes Reagent for 30 mins. […] Antibody binding to the cells was detected by FACS and median fluorescence intensity (MFI) was derived from data analysis performed with the FLOJO software (FIGS. 1A-1C).
In assay [7] the target is T5, human PILRB extracellular domain (recombinant) (human, UniProt Q9UKJ0 20-191).
T5 construct: also called hPILRB
As to the kind of experiment: SPR, Biacore 8K, recombinant ECD.
Experimental: as §1

For assay [8], the target named is T6, hNPDC1(35-181) (human, UniProt Q9NQX5 35-181).
T6 construct: range 35-181; also called neural proliferation differentiation and control protein 1
T6 sequence (looked up): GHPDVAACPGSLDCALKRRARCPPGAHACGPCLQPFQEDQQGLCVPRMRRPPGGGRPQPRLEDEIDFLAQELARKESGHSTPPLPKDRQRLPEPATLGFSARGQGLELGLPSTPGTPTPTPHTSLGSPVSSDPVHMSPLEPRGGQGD
As to the kind of experiment: SPR (Biacore 8K): ligand injected over hPILRA ECD (300 nM) held by an anti-PILRA antibody captured on anti-human Fab; panel Ligand binding permitted, antibody not named.

For assay [9], the target named is T7, hPANP(76-178) (human, UniProt Q8IYJ0 76-178).
T7 construct: range 76-178; also called PIANP; PILRA-associated neural protein
T7 sequence (looked up): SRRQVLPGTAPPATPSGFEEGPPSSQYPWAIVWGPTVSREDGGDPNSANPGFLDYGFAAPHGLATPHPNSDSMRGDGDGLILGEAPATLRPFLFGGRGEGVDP
Described as above.

The target of assay [10] is B2. As to the kind of experiment: SPR.
Assay [11] deals with T2, human PILRA R78 extracellular domain …. Put plainly: SPR.
Target sequence in this assay (Q9UKJ1 20-197 limits assumed): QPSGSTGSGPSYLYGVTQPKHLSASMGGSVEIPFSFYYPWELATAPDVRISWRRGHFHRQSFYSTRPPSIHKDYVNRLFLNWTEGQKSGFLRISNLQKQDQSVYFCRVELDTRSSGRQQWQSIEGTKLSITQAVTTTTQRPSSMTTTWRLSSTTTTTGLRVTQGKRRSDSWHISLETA
The target in assay [12] is T5, human PILRB extracellular domain …. As to the kind of experiment: SPR.
The target in assay [13] is T3, cynomolgus monkey PILRA extracellular …. As to the kind of experiment: SPR.
The target of assay [14] is T1, human PILRA G78 on cells. As to the kind of experiment: flow cytometry (MFI), CHO-K1 cells expressing hPILRA G78, Alexa Fluor 647 anti-human IgG.
Experimental: as §2
Assay [15] addresses T1, human PILRA G78 on cells. As to the kind of experiment: cell-based or functional assay. This is another data set of the same source.
Target sequence in this assay (Q9UKJ1 20-303 R78G limits assumed): as the sequence (Q9UKJ1 20-303 R78G limits assumed) above
The target in assay [16] is T4, human PILRA R78 on cells. As to the kind of experiment: flow cytometry on PILRA R78 expressing HEK293 cells (FIG. 1F).
Experimental: as §2
The target in assay [17] is B2. Put plainly: SPR, Biacore 8K; hPILRA ECD; antibody with wild-type Fc.
Experimental: as §1
Characterization for binding affinities of the humanized antibodies to hPILRA ECD were measured by SPR using a Biacore 8K instrument (Table 7).
Assay [18] addresses T4, human PILRA R78 on cells. As to the kind of experiment: cell-based or functional assay.
Target sequence in this assay (Q9UKJ1 20-303 limits assumed): as the sequence (Q9UKJ1 20-303 R78G limits assumed) above, with G59R counted along it
Assay [19] concerns the target T1, human PILRA G78 on cells. As to the kind of experiment: flow cytometry on HEK293 cells expressing hPILRA G78. This is another data set of the same source.
Target sequence in this assay (Q9UKJ1 20-303 R78G limits assumed): as the sequence (Q9UKJ1 20-303 R78G limits assumed) above
Assay [20] addresses T8, human PILRB on cells (human, UniProt Q9UKJ0 20-227).
T8 construct: Expressed on CHO-K1 cells, or together with DAP12 on HEK293 cells (hPILRB-DAP12 OE HEK293); also called hPILRB; hPILRB-DAP12
Put plainly: flow cytometry on hPILRB-DAP12 OE HEK293 cells.
Experimental: Human PILRB-DAP12 OE HEK293 cells were stained with NucBlue Live cell stain for 30 mins at RT. […] Cell lines were run in duplicates to account for intra-variability, for a total of N=3.

Assay [21] concerns the target T5, human PILRB extracellular domain …. Put plainly: SPR, Biacore 8K; antibody captured via anti-human Fab, recombinant ECD injected; 1:1 fit.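 Also: CM5 sensor chip, ECD analyte in threefold dilution series at 30 µL/min, 3 min association and 10 min dissociation, kon and koff fitted simultaneously.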
Experimental: as §1
Assay [22] addresses T4, human PILRA R78 on cells. As to the kind of experiment: flow cytometry on HEK293 PILRA R78 cells without sialidase treatment; without sialidase treatment.
Target sequence in this assay (Q9UKJ1 20-303 limits assumed): as the sequence (Q9UKJ1 20-303 R78G limits assumed) above, with G59R counted along it
Experimental: (§3) PILRA 78G or PILRA 78R expressing HEK293 cells were treated with SialEXO (Genovis). […] It is a combination of two sialidases acting on α2-3, α2-6 and α2-8 linkages. […] Cells were then washed twice and incubated and stained with NucBlue Live Stain for 30 mins at RT.
(§4) Following the same protocol, sialidase treatment was also performed on HEK cells expressing PILRA R78.
In assay [23] the target is T1, human PILRA G78 on cells. Put plainly: flow cytometry on HEK293 PILRA G78 cells with sialidase treatment.
Experimental: as §3
Assay [24] addresses T4, human PILRA R78 on cells. Put plainly: flow cytometry on HEK293 PILRA R78 cells with sialidase treatment; with sialidase treatment.
Target sequence in this assay (Q9UKJ1 20-303 limits assumed): as the sequence (Q9UKJ1 20-303 R78G limits assumed) above, with G59R counted along it
Experimental: as §3, §4
The target in assay [25] is T1, human PILRA G78 on cells. As to the kind of experiment: flow cytometry on PILRA G78 expressing CHO-K1 cells (FIG. 1H).
Target sequence in this assay (Q9UKJ1 20-303 R78G limits assumed): as the sequence (Q9UKJ1 20-303 R78G limits assumed) above
Experimental: as §2
The target of assay [26] is T1, human PILRA G78 on cells. As to the kind of experiment: flow cytometry on HEK293 PILRA G78 cells without sialidase treatment.
Experimental: as §3
Assay [27] has as its target T4, human PILRA R78 on cells. As to the kind of experiment: flow cytometry on PILRA R78 expressing HEK293 cells (FIG. 1F); HEK293 cells expressing PILRA R78.
Target sequence in this assay (Q9UKJ1 20-303 limits assumed): as the sequence (Q9UKJ1 20-303 R78G limits assumed) above, with G59R counted along it
Experimental: as §2
The target of assay [28] is T1, human PILRA G78 on cells. Put plainly: flow cytometry on PILRA G78 expressing HEK293 cells (FIG. 1D); HEK293 cells expressing PILRA G78.
Experimental: as §2

Read-outs that look alike come from different tables or passages of the source.

T5 sequence (Q9UKJ0 20-191 limits assumed): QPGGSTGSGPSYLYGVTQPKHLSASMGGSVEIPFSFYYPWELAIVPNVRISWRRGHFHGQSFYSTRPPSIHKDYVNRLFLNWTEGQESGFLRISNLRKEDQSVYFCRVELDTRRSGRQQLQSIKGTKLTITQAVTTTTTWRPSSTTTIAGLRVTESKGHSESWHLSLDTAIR
T3 sequence (chain, as listed by the source limits assumed): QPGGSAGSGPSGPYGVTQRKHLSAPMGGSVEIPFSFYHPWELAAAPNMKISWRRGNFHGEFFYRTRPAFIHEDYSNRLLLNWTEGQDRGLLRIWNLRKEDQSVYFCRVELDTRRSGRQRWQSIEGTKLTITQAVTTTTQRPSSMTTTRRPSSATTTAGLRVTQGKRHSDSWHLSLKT
T8 sequence (Q9UKJ0 20-227 limits assumed): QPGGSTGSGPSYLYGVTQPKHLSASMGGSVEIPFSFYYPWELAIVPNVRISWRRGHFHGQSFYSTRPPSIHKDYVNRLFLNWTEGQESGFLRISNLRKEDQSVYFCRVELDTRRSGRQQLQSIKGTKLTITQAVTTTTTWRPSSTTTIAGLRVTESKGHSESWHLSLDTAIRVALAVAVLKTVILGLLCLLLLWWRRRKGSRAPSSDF

Regarding B1, the “pSTAT3 Y705 induction, EC50 (nM)” value in [1] turned out to be 1.45 nM. In [1], the “pSTAT3 Y705 induction, Fold Over Background” value was 16 fold. In addition, the Kd in [2] is 0.69 nM; in assay [3] it was 270 nM; in assay [4], 1.7 nM. The results for the EC50 in [5] and in [6] were 5.1 nM and 12.5 nM, respectively. Besides, the binding result in [7] is “no binding”.
For B2, the binding result in assay [8] and in [9] was “binds” in each case.
Regarding B3, the Kd in [10] is 1.4 nM; in [11] it was 25 nM; in [12] it was 150 nM; in assay [13], 5.3 nM; in assay [17] it was 1.71 nM. Also, the “EC50 (read off the curve)” value in assay [14] was around 10 nM. Moreover, the “pSTAT3 S727 induction, EC50 (nM)” value in assay [15] stood at 23 nM; in assay [18] it was 10.6 nM. In addition, the “pSTAT3 S727 induction, Fold Over Background” value was 28.9 fold in [15] and 30.1 fold in assay [18]. The “pSTAT3 Y705 induction, EC50 (nM)” value stood at 11.4 nM in assay [15] and 6.19 nM in assay [18]. Besides, the results for the “pSTAT3 Y705 induction, Fold Over Background” value in [15] and in assay [18] were 35.5 fold and 41 fold, respectively. Moreover, the results for the EC50 in assay [16] and in [19] were 3.1 nM and 12.8 nM, respectively.
For B4, the EC50 in assay [20] turned out to be 1.2 nM.
For B5, the entries for the “pSTAT3 S727 induction, EC50 (nM)” value in assay [15] and in assay [18] were 18.6 nM and 10.7 nM, respectively. In addition, the “pSTAT3 S727 induction, Fold Over Background” value in assay [15] turned out to be 26.6 fold; in [18], 28.9 fold. For the same molecule, the “pSTAT3 Y705 induction, EC50 (nM)” value in assay [15] was found to be 13 nM; in assay [18] it was 5.38 nM. Further, the results for the “pSTAT3 Y705 induction, Fold Over Background” value in [15] and in assay [18] were 32.5 fold and 38.3 fold, respectively. The Kd worked out at 1.2 nM in assay [2], 17 nM in assay [3], 250 nM in [21] and 4.8 nM in assay [4]. The EC50 came out at 0.7 nM in assay [22]; 3.2 nM in assay [23]; 13 nM in assay [6]; 0.3 nM in assay [24]; 10 nM in [25]; 9.5 nM in [26]. Besides, the EC50 in [27] turned out to be 2.5 nM; in assay [28], 12.9 nM.
